For test [1], the target named is human CD3 on Jurkat cells (human). Put plainly: FACS. For orientation: In flow cytometry, cells or beads pass a laser one at a time.
The target of test [2] is human CD3 epsilon/delta heterodimer, Fc-tagged (human). Description: SPR, 25C antigen-capture. (Surface plasmon resonance follows binding to a sensor surface in real time, without labels.)
Test [3] shares this target. Put plainly: SPR, 25C antibody-capture.
The target is the same in test [4]. Put plainly: SPR, 25C antibody-capture. The source holds these as a separate data set.
For test [5], the target named is human CD3 on Jurkat cells (human). Put plainly: FACS. This is another data set of the same source.
For test [6], the target named is T1, cynomolgus CD3 on T cells (cynomolgus monkey).
T1 chain: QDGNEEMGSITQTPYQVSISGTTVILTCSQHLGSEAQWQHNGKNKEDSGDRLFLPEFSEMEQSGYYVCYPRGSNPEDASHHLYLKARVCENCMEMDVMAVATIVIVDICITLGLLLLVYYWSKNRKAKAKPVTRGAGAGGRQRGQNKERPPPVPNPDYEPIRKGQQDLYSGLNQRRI
Description: FACS.

The target in test [7] is human CD3 on Jurkat cells (human). Description: FACS. This is another data set of the same source.
In test [8] the target is human CD3 epsilon/delta heterodimer, Fc-tagged (human). Put plainly: SPR, 37C.
Test [9] deals with T1, cynomolgus CD3 on T cells. Put plainly: FACS.
Test [10] concerns the target human CD3 epsilon/delta heterodimer, Fc-tagged (human). Put plainly: SPR, 37C. The source holds these as a separate data set.

This is an account of results in patent US20210403595 (published 2021).

Like-named read-outs stand apart in the source and are kept apart here.

Sequence of human CD3 on Jurkat cells (human) (chain, as listed by the source, chain 1 of 2): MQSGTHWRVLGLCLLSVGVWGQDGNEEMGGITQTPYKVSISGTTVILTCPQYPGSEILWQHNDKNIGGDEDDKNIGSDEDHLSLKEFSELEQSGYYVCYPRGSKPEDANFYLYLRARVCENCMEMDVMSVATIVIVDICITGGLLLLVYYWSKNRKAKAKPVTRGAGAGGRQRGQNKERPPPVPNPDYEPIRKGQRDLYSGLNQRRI
Sequence of human CD3 on Jurkat cells (human) (chain, as listed by the source, chain 2 of 2): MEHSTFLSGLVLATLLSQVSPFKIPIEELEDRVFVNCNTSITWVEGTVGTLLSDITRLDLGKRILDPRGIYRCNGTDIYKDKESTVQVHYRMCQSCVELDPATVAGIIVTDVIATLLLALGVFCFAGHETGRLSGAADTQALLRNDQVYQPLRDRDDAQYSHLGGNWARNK
Sequence of human CD3 epsilon/delta heterodimer, Fc-tagged (human) (chain, as listed by the source mutant, chain 1 of 2): as the sequence (chain, as listed by the source, chain 1 of 2) above
Sequence of human CD3 epsilon/delta heterodimer, Fc-tagged (human) (chain, as listed by the source mutant, chain 2 of 2): as the sequence (chain, as listed by the source, chain 2 of 2) above

B1: H1H5777P (antibody, V domains shown)
VH: EVQLVESGGGLVQPGRSLRLSCAASGFTFDDYAMHWVRQAPGKGLEWVSGISWNSGSRDYADSVKGRFTISRDNARNSLFLQMNSLSTEDTALYYCAKDKSGYGSYYYGMDVWGQGTTVTVSS
VL: EIVLTQSPGTLSLSPGDRATLSCRASQSIRSIYLAWYQQKPGQAPRLLIHGASTRATGIPDRFSGSGSGTDFTLTISRLEPEDFAVYYCQQRVSSPYTFGQGTKLEIK
The molecule B1 gave an EC50 in [1] of 0.571 nM. For the same molecule, the Kd in [2] stood at 3.52 nM; in test [3], 224 nM.

B2: H1H5769P (antibody, V domains shown)
VH: EVQLVESGGGLVQPGRSLRLSCAASGFTFDDYTMHWVRQVPGKGLEWISGISWNSGSMDYADSVKGRFTISRDNARNSLFLQMNSVRTEDTALYYCAKDKSGYGSFYYGMDVWGQGTTVTVSS
VL: EIVLTQSPGTLSLSPGDRATLSCRASQSVSSIYLAWYQQKPGQAPRLLIHGASTRATGIPDRFSGSGSGTDFTLTISRLEPEDFAVYYCQQRAHSPYTFGQGTKLEIK
B2: the EC50 in test [1] came out at 4.1 nM. For the same molecule, the Kd in test [2] was determined as 4.41 nM; in test [3] it was 121 nM.

B3: H2M2704N (antibody, V domains shown)
VH: QVQLVESGGGVVQPGRSLRLSCGASGFTFRSYGMHWVRQTPGRGLEWVAMIYYDGNNKYYADSVRGRFTVSRDNSKNTLYLQMSSLRAEDTALYFCARGPGYNWLDPWGQGTLVTVSS
VL: EIVMTQSPATLSVSPGERATLSCRASQSISRNLAWYQXKPGQAPRLLIYGASTRATGIPARFSGSGSGTEFTLTISSLQSEDFAVYYCQQYNNRPLTFGGGTEVEIK
modifications: not fully specified; listing feature
Turning to B3, in test [4], the affinity, expressed as Kd, was 20 nM.

B4: H2M2710N (antibody, V domains shown)
VH: QVQLVESGGGVVQPGRSLRLSCAASGFTFRSFGMHWVRQAPGRGLEWVAMIYFDGKNKYYADSVRGRFTISRDNSKNTLYLEMSSLRAEDTAVYFCARGPGYNWLDPWGQGTLVTVSS
VL: EIVMTQSPATLSVSPGERATLSCRASQSVSRNLAWYQQKPGQAPRLLIYGASTRATGVPARFSGSGSGTEFTLTISSLQSEDFAVFHCQQYNNRPLTFGGGTEVEIK
With B4, the EC50 in test [5] stood at 0.71 nM.

B5: H1H5761P (antibody, V domains shown)
VH: QVQLVESGGGVVQPGRSLRLSCAASGFTFSSYGMHWVRQAPGKGLEWVAVISYDGSNKYYADSVKGRFTISRDYSKNTLYLQMNSLRAEDTAVFYCAKGAMVRGVPYNYYYGMDVWGQGTTVTVSS
VL: DIQMTQSPSSLSASVGDRVTITCRASQGIRNDLGWFQQKPGKAPKRLIYAASSLQSGVPSRFSGSGSGTEFTLTISSLQPEDFATYYCLQHNSYPYTFGQGTKLEIK
For the molecule B5, the response in [1] was half-maximal at 2.1 nM (EC50). The Kd in [2] came out at 53.4 nM; in [3], 5160 nM.

B6: H1H5764P (antibody, V domains shown)
VH: QVQLVESGGGVVQPGRSLRLSCAASGFTFRSFGMHWVRQAPGKGLEWVAVISYDGNYKYYADSVKGRFTISRDNSKNTLYLQMNSLRAEDTAVHYCAKGAMVRGVPYNFYYGMDVWGQGTTVTVSS
VL: DIQMTQSPSSLSASVGDRVTITCRASQVIRNDLGWYQQKPGKAPKRLIYAASSLQSGIPSRFSGSGSGTEFTLTISSLQPEDFATYYCLQHNSYPYTFGQGTKLEIK
B6 registered an EC50 in test [1] of 0.88 nM. Moreover, the Kd in test [2] was determined as 21 nM.

B7: BSPSMA/CD3-1700 CD3 arm (antibody, V domains shown)
VH: EVQLVESGGGLVQPGRSLRLSCAASGFTFDDYSMHWVRQAPGKGLEWVSGISWNSGSKGYADSVKGRFTISRDNAKNSLYLQMNSLRAEDTALYYCAKYGSGYGKFYYYGMDVWGQGTTVTVSS
VL: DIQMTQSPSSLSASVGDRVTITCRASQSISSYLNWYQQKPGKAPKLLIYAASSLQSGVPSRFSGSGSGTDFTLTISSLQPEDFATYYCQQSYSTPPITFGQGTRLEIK
Turning to B7, the EC50 worked out at 3350 nM in [6] and 200 nM in test [7]. The Kd in test [8] turned out to be 65.2 nM.

B8: BSPSMA/CD3-1800 CD3 arm (antibody, V domains shown)
VH: EVQLVESGGGLVQPGRSLRLSCAASGFTFDDYSMHWVRQAPGKGLEWVSGISWNSGSIGYADSVKGRFTISRDNAKNSLYLQMNSLRAEDTALYYCAKDGSGYGKFYYYGLDVWGQGTTVTVSS
VL: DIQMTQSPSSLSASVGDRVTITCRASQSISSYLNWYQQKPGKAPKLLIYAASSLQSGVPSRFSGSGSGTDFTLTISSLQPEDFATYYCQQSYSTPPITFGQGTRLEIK
B8: the EC50 in [7] stood at 126 nM. Also, the binding result in test [9] and in [10] was “no binding” throughout.

B9: BSPSMA/CD3-1400 CD3 arm (antibody, V domains shown)
VH: EVQLVESGGGLVQPGRSLRLSCAASGFTFDDYSMHWVRQAPGKGLEWVSGISWNSGSIGYADSVKGRFTISRDNAKNSLYLQMNSLRAEDTALYYCAKYGSGYGKFYHYGMDVWGQGTTVTVSS
VL: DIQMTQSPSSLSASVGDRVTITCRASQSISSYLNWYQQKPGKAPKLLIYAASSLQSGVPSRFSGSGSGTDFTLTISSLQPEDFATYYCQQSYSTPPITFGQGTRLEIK
Take B9: the figures for the EC50 in test [6] and in [7] were 170 nM and 31.9 nM, respectively. The molecule also returned a Kd in [8] of 53.3 nM.

B10: BSPSMA/CD3-1100 CD3 arm (antibody, V domains shown)
VH: EVQLVESGGGLVQPGRSLRLSCAASGFTFDDYSMHWVRQAPGKGLEWVSGISWNSGSKGYADSVKGRFTISRDNAKNSLYLQMNSLRAEDTALYYCAKYGSGYGKFYHYGMDVWGQGTTVTVSS
VL: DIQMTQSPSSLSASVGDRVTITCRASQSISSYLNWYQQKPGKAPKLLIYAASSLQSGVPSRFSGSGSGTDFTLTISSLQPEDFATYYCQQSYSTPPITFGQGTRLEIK
Turning to B10, the figures for the EC50 in test [6] and in test [7] were 890 nM and 18.3 nM, respectively. In addition, the Kd in test [8] is 11.1 nM.

B11: BSPSMA/CD3-004 CD3 arm (antibody, V domains shown)
VH: EVQLVESGGGLVQPGRSLRLSCAASGFTFDDYSMHWVRQAPGKGLEWVSGISWNSGSIGYADSVKGRFTISRDNAKNSLYLQMNSLRAEDTALYYCAKDGSGYGKFYYYGMDVWGQGTTVTVSS
VL: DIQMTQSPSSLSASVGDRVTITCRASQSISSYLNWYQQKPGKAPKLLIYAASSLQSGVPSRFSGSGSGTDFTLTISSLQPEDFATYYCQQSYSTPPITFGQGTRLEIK
In turn, B11 came in with an EC50 in test [7] of roughly 1000 nM. Moreover, the binding result in test [9] and in test [10] was “no binding” in each case.

B12: BSPSMA/CD3-1300 CD3 arm (antibody, V domains shown)
VH: EVQLVESGGGLVQPGRSLRLSCAASGFTFDDYSMHWVRQAPGKGLEWVSGISWNSGSIGYADSVKGRFTISRDNAKNSLYLQMNSLRAEDTALYYCAKYGSGYGKFYYYGLDVWGQGTTVTVSS
VL: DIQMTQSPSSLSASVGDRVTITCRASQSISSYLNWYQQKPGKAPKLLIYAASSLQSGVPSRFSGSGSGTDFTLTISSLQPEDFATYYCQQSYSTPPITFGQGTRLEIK
As to B12, the figures for the EC50 in test [6] and in [7] were 2170 nM and 102 nM, respectively. This molecule had a Kd in [8] of 122 nM.

B13: BSPSMA/CD3-005 CD3 arm (antibody, V domains shown)
VH: EVQLVESGGGLVQPGRSLRLSCAASGFTFDDYSMHWVRQAPGKGLEWVSGISWNSGSIGYADSVKGRFTISRDNAKNSLYLQMNSLRAEDTALYYCAKYGSGYGKFYYYGMDVWGQGTTVTVSS
VL: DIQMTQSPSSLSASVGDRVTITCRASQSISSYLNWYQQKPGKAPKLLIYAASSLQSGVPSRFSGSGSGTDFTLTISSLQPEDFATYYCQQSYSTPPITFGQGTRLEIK
Regarding B13, the EC50 in test [6] was found to be 6140 nM; in test [7], 210 nM. Binding in test [8] was put at a Kd of 334 nM.

B14: H2M2778N (antibody, V domains shown)
VH: EVQLVESGGGLVQPGRSLRLSCAASGFTFDDYSMHWVRQAPGKGLEWVSGISWNSRSIDYADSVKGRFTISRDNAKNSLYLQMNSLRAEDTALYYCVKDNSGYGRYYYYGMDVWGQGTTVSVSS
VL: KIVMTQSPATLSVSPGERATLSCRASQSVSGNLAWYQQKPGQAPRLLIYGASTRATSIPARFSGSGSGTEFTLTISSLQSEDFAVYFCQHYYNWPLTFGGGTKVEIR
For B14, the Kd in [4] amounted to 8.9 nM.

B15: H2M3548N (antibody, V domains shown)
VH: EVQLVESGGGLVQPGRSLRLSCAASGFKFADYAMHWVRQAPGKGLEWVSEISWNSGSIGYVDSVKGRFTISRDNAKNSLYLQMNSLRAEDTALYYCVKDKSGYGHYYIGMDVWGQGTTVIVSS
VL: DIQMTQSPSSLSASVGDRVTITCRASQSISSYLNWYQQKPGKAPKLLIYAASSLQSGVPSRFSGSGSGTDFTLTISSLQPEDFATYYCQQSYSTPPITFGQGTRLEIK
For the molecule B15, the EC50 in test [5] was determined as 1.1 nM. Further, the Kd in test [4] stood at 130 nM.

B16: H1H5796B (antibody, V domains shown)
VH: EVQLVESGAEVKKPGASVKVSCKTSGYTFTGYYMHWIRQAPGQGLEWMGWINPKSGGTNYAQKFQGRVTMTRDTSISTAYMELSRLRSDDMAVYYCARMGDGAVFDFWGQGTLVTVSS
VL: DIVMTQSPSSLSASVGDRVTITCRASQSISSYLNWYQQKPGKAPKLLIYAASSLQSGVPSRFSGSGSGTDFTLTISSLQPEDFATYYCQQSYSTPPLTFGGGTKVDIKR
Regarding B16, in test [1], the 50% effective concentration (EC50) was determined as 9.82 nM. Besides, the Kd in [2] came out at 2.32 nM; in test [3], 60.5 nM.

B17: H1H5751P (antibody)
chain 1: EVQLVESGGDLVQPGRSLRLSCAASGFTFDDYTMHWVRQAPGKGLEWVSIISWNGNTIDYADSVKGRFTISRDNAKNSLYLQMNSLRAEDTALYYCAKDKSGYGHFYYYVLDVWGQGTTVTVSS
chain 2: DIQMTQSPSSLSASVGDRVTITCRASQSINNYLNWYQQKPGKAPKLLIYAASSLQSGVPSRFSGSGSGTDFTLTISSLQPEDFATYYSQQSYSFPWTFGQGTKVEIK
With B17, the EC50 in [1] stood at 2.12 nM. For the same molecule, the Kd came out at 3.42 nM in [2] and 129 nM in test [3].

B18: H1M3549N (antibody, V domains shown)
VH: EVQLVESGGGLVQPGRSLRLSCVASGFPFADYTMHWVRQAPGKGLEWVSDISWNSGSIGYADSVKGRFTISRDNAKNSLYLQMNSLRTEDTALYYCAKDMSGYAHYFYYGMDVWGQGTTVTVSS
VL: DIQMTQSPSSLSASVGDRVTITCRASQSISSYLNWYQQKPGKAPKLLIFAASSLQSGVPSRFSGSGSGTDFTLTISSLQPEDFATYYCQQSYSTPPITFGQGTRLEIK
With B18, in [5], the 50% effective concentration (EC50) is 2.3 nM.

B19: H2M3543N (antibody, V domains shown)
VH: EVQLVESGGGLVQPGRSLRLSCAASGFTFDDYTMHWVRQAPGKGLEWVSDISWNSGSIGYADSVKGRFTVSRDNAKNSLYLQMNSLRGEDTALYYCAKDMSGYAHYGYYGMDVWGQGTTVTVSS
VL: DIQMTQSPSSLSASVGDRVTITCRASQSIRNYLNWYQQKPGKVPKLLIYAASSLQSGVPSRFSGSGSGTDFTLTISSLQPEDFATYYCQQSYSNPPITFGQGTRLEIK
B19 returned a Kd in test [4] of 30 nM.

B20: H2M3541N (antibody, V domains shown)
VH: EVQLVESGGGLVRPGRSLRLSCAASGFTFDDYTMHWVRQAPGKGLEWVSDISWNSGTIGYADSVKGRFTISRDNAKNSLYLQMNSLRPEDTALYYCAKDMSGYAHYYYYGMDVWGQGTTVTVSS
VL: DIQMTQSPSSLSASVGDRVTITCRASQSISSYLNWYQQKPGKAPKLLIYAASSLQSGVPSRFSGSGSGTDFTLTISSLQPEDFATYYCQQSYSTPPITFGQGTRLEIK
As for B20, in test [5], the EC50 came out at 3.7 nM.

By EC50 is commonly meant the concentration that produces a half-maximal response. A low value points to an effect from little substance. In general, Kd refers to the equilibrium constant for the complex coming apart. Low values mean a tighter complex, high ones a looser complex.
